According to PMC7023026, “A Label-Free Fluorescent Aptasensor for Detection of Staphylococcal Enterotoxin A Based on Aptamer-Functionalized Silver Nanoclusters”:

Biological target: Staphylococcal enterotoxin A (SEA) (Staphylococcus aureus, UniProt P0A0L2 25-257)
Sequence (P0A0L2 25-257): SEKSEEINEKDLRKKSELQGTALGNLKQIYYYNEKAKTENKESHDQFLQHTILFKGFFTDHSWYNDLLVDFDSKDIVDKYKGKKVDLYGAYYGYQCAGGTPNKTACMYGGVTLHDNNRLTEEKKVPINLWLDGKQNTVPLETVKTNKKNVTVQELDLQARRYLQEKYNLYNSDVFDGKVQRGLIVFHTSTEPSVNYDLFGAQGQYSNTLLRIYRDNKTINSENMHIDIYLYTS

B1: C6G5C6-apt (AgNC template) (structured_DNA)
DNA: CCCCCCGGGGGCCCCCCAGCAGCACAGAGGTCAGATGTACTTATGCATTTCCTCCCACGATCTTATTTGAGAGTGACCCTATGCGTGCTACCGTGAA
- binding result: binds
